Test results as given in patent publication US20120207673A1.

Columns and labels:
protein A [1] = molecular target: protein A (UniProt P38507); assay: phage ELISA on coated protein A; heat/cool assay, % of untreated sample (n = 2)
protein A [2] = molecular target: protein A (UniProt P38507); assay: phage ELISA on coated protein A; heat/cool assay, % of untreated sample

Substance	Retained binding to protein A (%) (protein A [1])	Retained binding to protein A (%) (protein A [2])
DP47 VH T28D + YA_32/33_DD	76.1%	
DP47 VH S35D + SYA_31-33_DDD	76.7%	
DP47 VH T28D + SYA_31-33_DDD + S35D	78.6%	
DP47 VH S35D + YA_32/33_DD		70.4%
DP47 VH T28D + SYA_31-33_DDD	74.9%	
